This is an account of results in patent US8025878 (BIOARCTIC NEUROSCIENCE, dated 2011).

Where a chain is given by its changes, count along the chain named.

Sequences and labels used below:
T1: medin fibrils (UniProt Q08431 268-317, not fully specified)
T1 construct: Fibrils immobilized on a nitrocellulose membrane
T1 peptide (looked up): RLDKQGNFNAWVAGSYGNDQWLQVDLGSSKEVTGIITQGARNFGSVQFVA

T2: islet amyloid polypeptide (IAPP) fibrils (UniProt P10997 34-70, not fully specified)
T2 construct: Fibrils immobilized on a nitrocellulose membrane
T2 peptide (looked up): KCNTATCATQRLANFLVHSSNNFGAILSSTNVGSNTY

T3: C-terminal fragment of Aβ (UniProt P05067 688-711)
T3 construct: domain: C-terminal fragment of Aβ; also called Aβ fragment 17-40
T3 peptide (looked up): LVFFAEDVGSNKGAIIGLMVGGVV

B1: Aβ1-16 (peptide, UniProt P05067 672-687, looked up)
peptide: DAEFRHDSGYEVHHQK
notes: domain: Aβ1-16; also called N-terminal part of the Aβ peptide; Aβ1-16 peptide
B2: mouse monoclonal antibody 158 (mAb158) (antibody, V domains shown)
VH: DVQLVESGGGLVQPGGSRKLSCAASGFTFSSFGMHWVRQAPEKGLEWVAYISSGSSTIYYGDTVKGRFTISRDNPKNTLFLQMTSLRSEDTAMYYCAREGGYYYGRSYYTMDYWGQGTSVTVSS
VL: DVLMTQTPLSLPVSLGDQASISCRSSQSIVHSNGNTYLEWYLQKPGQSPKLLIYKVSNRFSGVPDRFSGSGSGTDFTLKISRVEAEDLGIYYCFQGSHVPPTFGGGTKLEIK
notes: Mouse hybridoma IgG with a kappa light chain; In the sandwich ELISA the detecting copy was biotinylated; also called BA9
B3: humanized 158 antibody (BAN2401) (antibody, V domains shown)
VH: EVQLVESGGGLVQPGGSLRLSCSASGFTFSSFGMHWVRQAPGKGLEWVAYISSGSSTIYYGDTVKGRFTISRDNAKNSLFLQMSSLRAEDTAVYYCAREGGYYYGRSYYTMDYWGQGTTVTVS
VL: B2 VL with L3V, T7S, S14T, L15P, D17A, Q18P, K79R, L88V, G105P

Assay [1] deals with B2. The assay can be described thus: mAb158 sandwich ELISA, Aβ1-16 competing with 50 pM Aβ protofibrils. An excerpt:
(§1) A large excess of monomeric Aβ, holoAPP and APP-fragments, naturally occurring in biological samples, could interfere with the Aβ protofibril analysis by occupying binding sites of the capture antibody coat, thus inhibiting the protofibrils from binding. This problem was investigated by adding an increasing excess of Aβ1-16 to a fixed concentration of Aβ protofibrils (50 pM, expressed as monomer units) and analyzing it with both the mAb158 ELISA and a 6E10-6E10 sandwich ELISA (FIG. 6C). […] Moreover, when synthetic Aβ protofibrils was added to mock HEK cell culture media or non-transgenic mouse brain homogenates, 90% of the signal was recovered (data not shown).
Background: An ELISA detects its analyte on a solid surface through an enzyme-linked reagent.

For assay [2], the target named is 6E10. The experiment in a line: 6E10-6E10 sandwich ELISA, Aβ1-16 competing with 50 pM Aβ protofibrils.
From the text: as §1

Assay [3] concerns the target T1, medin fibrils. The experiment in a line: dot blot, fibrils on nitrocellulose membrane. An excerpt:
(§2) Due to technical difficulties in generating protofibrils from other amyloidogenic proteins than Aβ, mAb158 was instead tested against different amyloid fibrils. The dot blot assay was used for these experiments since inhibition ELISA, where the antibody-antigen reactions take place in solution, is not suitable for insoluble antigens like fibrils. The dot blot assay is however not suitable for evaluation of antibody specificity for various Aβ forms, i.e. for measuring differences in selectivity for profibrils and fibrils. […] As positive controls the antibodies 6E10 (Aβ), pAb179 (medin), pAbA110 (IAPP) and mAb211 (α-synuclein) were used (FIG. 5B). Representative blots from repeated experiments (n=3).

The target of assay [4] is T2, islet amyloid polypeptide (IAPP) fibrils. The assay can be described thus: dot blot, fibrils on nitrocellulose membrane.
From the text: as §2

The target in assay [5] is α-synuclein fibrils (UniProt P37840 1-140). The assay can be described thus: dot blot, fibrils on nitrocellulose membrane.
From the text: as §2

Assay [6] deals with T3, C-terminal fragment of Aβ. The assay can be described thus: competitive ELISA, plate coated with Aβ protofibrils. How it is done: (§3) From competitive ELISA experiments, the antibody has a strong affinity for human Aβ42 wild-type protofibrils, but only very weak affinity for the N-terminal part of the Aβ peptide and Aβ monomers.
In FIG. 2B a competitive ELISA is shown. An ELISA plate was coated with human Aβ protofibrils. […] The incubation mix was added to the microtiter plate wells and free antibody was allowed to bind to immobilized protofibrils in the wells.

Assay [7] addresses T4, AβArc protofibrils (human, UniProt P05067 672-713, limits assumed).
T4 construct: Used for a standard curve in the mAb158 sandwich ELISA; also called Arctic Aβ protofibrils
The assay can be described thus: sandwich ELISA, mAb158 as both capturing and detecting antibody. An excerpt:
Establishment of an Aβ protofibril specific sandwich ELISA. To enable measurements of Aβ protofibrils in biological samples a sandwich ELISA with mAb158 as both capturing and detecting antibody was established. This assay measures Aβ protofibrils with a detection limit of 1 pM and with a linear range up to 250 pM (FIG. 6A, lines indicate linear regression of the standard curves). Due to uncertainties concerning the size of the Aβ protofibrils used in the standard curve, the concentration 1 pM is based on the molecular weight of one Aβ monomer (4514 g/mol), Though, since the molecular weight of a protofibril has been estimated to be at least 100 kDa, the limit of detection calculated as molar Aβ protofibrils could be as low as 50 fM. A standard curve of AβArc protofibrils gave a lower signal than wild type Aβ protofibrils, possibly due to differences in Aβ protofibril size (FIGS. 6A, 6B). Titrated synthetic LMW-Aβ (Low Molecular Weight Aβ). By the term "Low Molecular Weight Aβ", it is meant monomers, dimers and trimers of Aβ having a molecular weight of approximately 4-12 kDa. Aβ protofibrils and Aβ1-16 were used to validate the conformation specificity of the ELISA (FIG. 6B), where the hydrophilic Aβ1-16 peptide was used since it is not expected to aggregate. […]

Assay [8] deals with T5, Aβ fibrils (UniProt P05067 672-713).
T5 construct: Insoluble fibrillar aggregate
The assay can be described thus: sandwich ELISA, mAb158 as capture and biotinylated mAb158 as detector. How it is done:
as §3
In FIG. 2A a sandwich ELISA is shown. […] Colour development was measured according to the procedure recommended by the manufacturer.

For assay [9], the target named is B1. The assay can be described thus: mAb158 sandwich ELISA with excess Aβ1-16 added to 50 pM Aβ protofibrils.
From the text: as §1

Assay [10] deals with T6, human Aβ42 wild-type protofibrils (human, UniProt P05067 672-713).
T6 construct: domain: Aβ42; Soluble oligomeric aggregate of many Aβ42 peptides; also called Aβ protofibrils; human wild-type Aβ protofibrils
The experiment in a line: competitive ELISA with monomeric and protofibrillar Aβ.

T6 sequence (P05067 672-713 limits assumed): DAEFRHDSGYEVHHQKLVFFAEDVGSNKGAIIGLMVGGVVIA
T5 sequence (P05067 672-713): as the sequence (P05067 672-713 limits assumed) above
T4 sequence (P05067 other isoform, or with tags, fused parts or gaps limits assumed): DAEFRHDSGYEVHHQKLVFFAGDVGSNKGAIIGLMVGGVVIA
6E10, sequence (VH, as listed by the source, chain 1 of 2): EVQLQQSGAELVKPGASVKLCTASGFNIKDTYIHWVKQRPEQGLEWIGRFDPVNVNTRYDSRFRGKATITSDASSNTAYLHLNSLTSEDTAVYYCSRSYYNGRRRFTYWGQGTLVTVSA
6E10, sequence (VL, as listed by the source, chain 2 of 2): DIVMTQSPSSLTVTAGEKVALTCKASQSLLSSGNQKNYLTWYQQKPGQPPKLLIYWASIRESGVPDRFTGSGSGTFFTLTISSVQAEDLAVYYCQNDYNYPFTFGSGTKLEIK

With B1, the “molar excess of Aβ1-16 over Aβ protofibrils that did not disturb the signal” value in assay [1] was 500000 fold. The “molar excess of Aβ1-16 over Aβ protofibrils enough to decrease the signal” value in assay [2] came to 500 fold.
Turning to B2, the binding result in assay [3] is “no binding”; in assay [4], “no binding”; in assay [5], “no binding”; in [6] it was “no binding”; in [7], “binds”; in assay [9] it was “binds”. The “fold less cross-reactivity than with Aβ protofibrils” value in [8] was less than 40 fold.
As to B3, the binding result in [10] is on record as “binds”.
